The text below walks through data of paper PMC9927289, “Control of Cell Size by c-di-GMP Requires a Two-Component Signaling System in the Cyanobacterium Anabaena sp. Strain PCC 7120” (Microbiology Spectrum, 2023).

Substrate in series [1]: Nc1nc2c(ncn2[C@@H]2O[C@H](COP(=O)(O)OP(=O)(O)OP(=O)(O)O)[C@@H](O)[C@H]2O)c(=O)[nH]1
Put plainly: diguanylate cyclase assay, Michaelis-Menten and Lineweaver-Burk. The format is biochemical, Nostoc sp. PCC 7120 = FACHB-418. To be noted: c-di-GMP synthesis; GTP varied. From the text: diguanylate cyclase assay, Michaelis-Menten and Lineweaver-Burk on CdgS (All2874) | kinetic curves for c-di-GMP synthesis of CdgS and CdgS^D60A followed Michaelis–Menten kinetics

Substrate in series [2]: Nc1nc2c(ncn2[C@@H]2O[C@H](COP(=O)(O)OP(=O)(O)OP(=O)(O)O)[C@@H](O)[C@H]2O)c(=O)[nH]1
The series is described as above. The class given is biochemical, Nostoc sp. PCC 7120 = FACHB-418. Conditions: c-di-GMP synthesis; GTP varied. From the text: diguanylate cyclase assay, Michaelis-Menten and Lineweaver-Burk on CdgS (All2874) | CdgS^D60A could still synthesize c-di-GMP using GTP as the substrate
The source holds these as a separate data set.

Numbering of substitutions follows the chain as printed. In names and notes the source's numbering stands.

B1: CdgS (All2874) (Nostoc sp. PCC 7120 = FACHB-418) (protein)
chain: MKNTVPESQCLILIVDDEPFIRAQLRLSLQCEGYRTAEAEDGRQALAIFQELQPDIVLLDAIMPDLDGFECCTRLQLLEDGKYTPVLMITGLEDQESVDRAFEVGAIDYVTKPIHWPVLRQRVKRLIQQFHLQQKLEAANRELQRLVTIDELTQVANRRRFEEYCAQEWQRMARDQLPLSLILCDVDFFKAYNDTYGHRAGDRCLQLVAKAIESCVNRPADVVARYGGEEFAVILPRTYPDGAIHLANAICTAVRELQITHLTSQANTCVTISAGVATEIPVPNSDFQEIINAADRALYQAKMTGRDGCQQYIKQSSSPVYFLNAHHRLA
notes: REC-GGDEF response regulator; recombinant from E. coli BL21(DE3), pHTwinStrep vector (two tandem C-terminal Strep-tags)
For B1, in series [1], the Michaelis constant (Km) (in general, the concentration of substrate that gives half-maximal velocity) came out at 5.84 µM and the kcat (as a rule, the maximal rate divided by the concentration of active sites) is 73.68 s⁻¹.

B2: CdgS (All2874) (Nostoc sp. PCC 7120 = FACHB-418; D60A) (protein)
chain: B1 chain with D60A
notes: as for B1
Turning to B2, in series [2], the Km was determined as 6.33 µM and the kcat turned out to be 60.53 s⁻¹.
